Assay results as given in patent US20190083587A1 (Novo Nordisk, published 2019).
Substitutions are numbered along the chain they refer to. Names may count otherwise.

Key:
hTLT-1 ECD-HPC4 R117A = target: T1, hTLT-1 ECD-HPC4 R117A (human, UniProt Q86YW5 16-162); test: SPR ProteOn, mAb captured by anti-hFc, 100 nM mutant, signal 10 s after injection
T1 construct: Built as m17; also called Ala mutant 32
T1 chain: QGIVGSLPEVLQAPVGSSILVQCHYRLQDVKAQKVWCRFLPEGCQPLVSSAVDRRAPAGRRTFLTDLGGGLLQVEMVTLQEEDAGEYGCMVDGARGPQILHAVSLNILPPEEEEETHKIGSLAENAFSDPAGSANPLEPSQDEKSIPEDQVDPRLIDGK
Protocol: (§1) Each antibody was diluted in 10 mM sodium acetate pH 5.0 to a concentration of 50 μg/ml, and was immobilized to an individual flow cell at 30 μl/min for 240 s. The antibodies were immobilized to flow cells A1-A6 (horizontal direction). After immobilization, the active sites on the flow cell were blocked with 1 M ethanolamine. The final immobilization level of capture antibody typically ranged from approximately 9,000 to 10,000 RU in one experiment. Capture of the anti-TLT-1 antibodies mAb0023, mAb0051, mAb0061 and mAb0062 was conducted by diluting to 0.5 μg/ml into HBS-EP buffer (10 mM HEPES, 150 mM NaCl, 3 mM EDTA, 0.05% surfactant P20, pH 7.4) and injected at 30 μl/min for 60 s in vertical direction, creating interspot reference points with only anti-human Fc antibodies.
(§2) The final capture level of test antibodies typically ranged from approximately 200 to 300 RU in one experiment. Binding of wt or Ala mutant hTLT-1 ECD-HPC4 protein was conducted by injecting over parallel flow cells in horizontal direction to allow for comparative analyses of binding to different captured anti-TLT-1 antibodies relative to binding to the interspot references. Each hTLT-1 ECD-HPC4 protein was diluted to 100 nM, based on the calculated average Mw, into HBS-EP buffer and injected at 30 μl/min for 240 s. The GLM chip was regenerated after each injection cycle of analyte via one 18 s injection of 1 M Formic acid followed by a 18s injection of 50 mM NaOH at 100 μl/min. This regeneration step removed the anti-TLT-1 antibody and any bound TLT-1 from the immobilized capture antibody surface, and allowed for the subsequent binding of the next test sample pair.
(§3) Data analysis was performed using the ProteOn Manager™ Software. No significant non-specific binding to the interspot control surfaces was observed. Binding curves were processed by double referencing (subtraction of interspot control surface signals as well as blank buffer injections over captured anti-TLT-1 antibodies). This allowed correction for instrument noise, bulk shift and drift during sample injections. Binding signal at 10 s after stop of analyte injection was normalized to level of captured anti-TLT-1 antibody and presented as binding relative to wt hTLT-1 ECD-HPC4 protein.

hTLT-1 ECD-HPC4 S119A = target: T2, hTLT-1 ECD-HPC4 S119A (human, UniProt Q86YW5 16-162); test: as above
T2 construct: Built as m17; also called Ala mutant 33
T2 chain: T1 chain with A102R, S104A
Protocol: as §1, §2, §3

hTLT-1 ECD-HPC4 M91A = target: T3, hTLT-1 ECD-HPC4 M91A (human, UniProt Q86YW5 16-162); test: as above
T3 construct: Built as m17; also called Ala mutant 24
T3 chain: T1 chain with M76A, A102R
Protocol: as §1, §2, §3

hTLT-1 ECD-HPC4 F54A = target: T4, hTLT-1 ECD-HPC4 F54A (human, UniProt Q86YW5 16-162); test: as above
T4 construct: Built as m17; also called Ala mutant 12
T4 chain: T1 chain with F39A, A102R
Protocol: as §1, §2, §3

hTLT-1 ECD-His = target: T5, hTLT-1 ECD-His (human, UniProt Q86YW5 16-162); test: SPR Biacore, mAb immobilised directly, TLT-1 as analyte
T5 construct: Extracellular domain of human TLT-1 with C-terminal His-6 tag; the range 16-168 is computed from these; also called TLT-1-His; His tagged human TLT1
T5 sequence: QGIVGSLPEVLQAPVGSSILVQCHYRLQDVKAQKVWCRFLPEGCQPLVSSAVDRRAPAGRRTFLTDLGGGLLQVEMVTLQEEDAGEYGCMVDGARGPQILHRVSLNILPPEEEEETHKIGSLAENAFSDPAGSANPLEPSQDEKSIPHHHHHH
Protocol: Method: The mAbs of interest were either immobilized directly to a CM5 chip or by capture via a human Fc capture mAb immobilized to a CM5 chip, while TLT-1-His was immobilized by capture via an anti-His mAb CM5 chip for analysis of Fabs.
mAb direct capture: The TLT-1 mAbs were immobilised to a level of approx 500-1000 RU on a CM5 chip (50 μg/ml diluted in Na-acetate, pH 4.0) using the standard procedure recommended by the supplier. Two-fold dilutions of TLT-1 from 200 nM to 0.2 nM were tested for binding to the mAbs. Running and dilution buffer: 10 mM HEPES, 150 mM, 0.005% p20, pH 7.4. Regeneration was obtained by 10 mM Glycine, pH 1.7. mAb capture via human Fc mAb: Human Fc mAb was immobilised to approx 10.000 RU. The mAb of interest was added (approx 100 nM). Two-fold dilutions of TLT-1 from 200 nM to 0.2 nM were tested. Running and dilution buffer: 10 mM HEPES, 150 mM, 0.005% p20, pH 7.4. Regeneration was obtained in 3 M MgCl₂.

[1] = target: T6, human TLT-1 on activated platelets (human, UniProt Q86YW5 16-311); test: cell-based or functional assay
T6 sequence: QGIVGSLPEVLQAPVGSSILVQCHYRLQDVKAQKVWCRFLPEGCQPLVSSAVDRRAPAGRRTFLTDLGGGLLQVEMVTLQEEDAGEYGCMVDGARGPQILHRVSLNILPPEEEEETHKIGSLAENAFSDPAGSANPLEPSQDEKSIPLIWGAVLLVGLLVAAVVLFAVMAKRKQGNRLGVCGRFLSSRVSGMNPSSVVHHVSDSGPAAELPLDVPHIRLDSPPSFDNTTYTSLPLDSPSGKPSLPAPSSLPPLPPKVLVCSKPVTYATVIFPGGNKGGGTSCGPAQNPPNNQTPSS

hTLT-1 ECD-HPC4 R41A = target: T7, hTLT-1 ECD-HPC4 R41A (human, UniProt Q86YW5 16-162); test: SPR ProteOn, mAb captured by anti-hFc, 100 nM mutant, signal 10 s after injection
T7 construct: Built as m17; also called Ala mutant 7
T7 chain: T1 chain with R26A, A102R
Protocol: as §1, §2, §3

hTLT-1 ECD-HPC4 R110A = target: T8, hTLT-1 ECD-HPC4 R110A (human, UniProt Q86YW5 16-162); test: as above
T8 construct: Built as m17; also called Ala mutant 30
T8 chain: T1 chain with R95A, A102R
Protocol: as §1, §2, §3

hTLT-1 ECD-HPC4 L42A = target: T9, hTLT-1 ECD-HPC4 L42A (human, UniProt Q86YW5 16-162); test: as above
T9 construct: Built as m17; also called Ala mutant 8
T9 chain: T1 chain with L27A, A102R
Protocol: as §1, §2, §3

hTLT-1 ECD-HPC4 H116A = target: T10, hTLT-1 ECD-HPC4 H116A (human, UniProt Q86YW5 16-162); test: as above
T10 construct: Built as m17; also called Ala mutant 31
T10 chain: T1 chain with H101A, A102R
Protocol: as §1, §2, §3

hTLT-1 ECD-HPC4 Q43A = target: T11, hTLT-1 ECD-HPC4 Q43A (human, UniProt Q86YW5 16-162); test: as above
T11 construct: Built as m17; also called Ala mutant 9
T11 chain: T1 chain with Q28A, A102R
Protocol: as §1, §2, §3

B1: mAb0051 (antibody, V domains shown)
VH: QVQLEQSGAELVRPGVSVKISCKGSGYTFTDYSMHWVKQSHAKSLEWIGVISTYYGDVRYNQKFKGKATMTVDKSSSTAYMALARLTSEDSAIYYCARAPMITTGAWFAYWGQGTLVTVSA
VL: SIVMTQTPKFLLVSAGDRVTITCKASQSVSNDVAWYQQKPGQSPKLLINYASSRYTGIPDRFTGSGYGTDFTFTISTVQAEDLAVYFCQQDYSSPYTFGGGTKLEIER
notes: Mouse VH/VL, human IgG4 / kappa; The entries seem to include signal peptides; also called antiTLT-1 0051mab
binding relative to wt hTLT-1 ECD-HPC4 (hTLT-1 ECD-HPC4 R117A): < 0.2 fraction of wt
binding relative to wt hTLT-1 ECD-HPC4 (hTLT-1 ECD-HPC4 S119A): < 0.6 fraction of wt
binding relative to wt hTLT-1 ECD-HPC4 (hTLT-1 ECD-HPC4 M91A): < 0.2 fraction of wt
binding relative to wt hTLT-1 ECD-HPC4 (hTLT-1 ECD-HPC4 F54A): < 0.4 fraction of wt
Kd (hTLT-1 ECD-His): 19.3 nM
koff (hTLT-1 ECD-His): 0.00472 s⁻¹
kon (hTLT-1 ECD-His): 245000 M⁻¹ s⁻¹

B2: FVIIa-Fab1001 (other)
heavy: EVKLLESGGGLVQPGGSLKLSCAASGFDFSRYWMTWVRQAPGKGLEWIGEINPDSSTINYNPSLKDKFIISRDNAKNTLYLQMSEVRSEDTALYYCASGVFTSWGQGTLVTVSAASTKGPSVFPLAPCSRSTSESTAALGCLVKDYFPEPVTVSWNSGALTSGVHTFPAVLQSSGLYSLSSVVTVPSSSLGTKTYTCNVDHKPSNTKVDKRVESKYGPPC
light: DVVMTQTPLSLPVSLGDQASISCRSSQSLVHRNGNTYFHWALQKPGQSPKLLIYKVSNRFSGVPDRFSGSGSGTDFTLKISRVEAEDLGVYFCSQSTHVPYTFGGGTKLEIKRTVAAPSVFIFPPSDEQLKSGTASVVCLLNNFYPREAKVQWKVDNALQSGNSQESVTEQDSKDSTYSLSSTLTLSKADYEKHKVYACEVTHQGLSSPVTKSFNRGECEDQVDPRLIDGK
chain: ANAFLEELRPGSLERECKEEQCSFEEAREIFKDAERTKLFWISYSDGDQCASSPCQNGGSCKDQLQSYICFCLPAFEGRNCETHKDDQLICVNENGGCEQYCSDHTGTKRSCRCHEGYSLLADGVSCTPTVEYPCGKIPILEKRNASKPQGRIVGGKVCPKGECPWQVLLLVNGAQLCGGTLINTIWVVSAAHCFDKIKNWRNLIAVLGEHDLSEHDGDEQSRRVAQVIIPSTYVPGTTNHDIALLRLHQPVVLTDHVVPLCLPERTFSERTLAFVRFSLVSGWGQLLDRGATALELMVLNVPRLMTQDCLQQSRKVGDSPNITEYMFCAGYSDGSKDSCKGDSGGPHATHYRGTWYLTGIVSWGQGCATVGHFGVYTRVSQYIEWLQKLMRSEPRPGVLLRAPFP
modifications: linker attached as sialic acid derivative to an N-linked glycan (ST3Gal-III); gamma-carboxylated Glu in the Gla domain; unpaired hinge Cys (YGPPC) coupled by maleimide to the 3 kDa PEG linker
peak thrombin generation at 25 nM, haemophilia A like platelet rich plasma [1]: ~4 fold compared to rFVIIa (25 nM)

B3: FVIIa-Fab1029 (other)
heavy: B2 heavy
light: B2 light
chain: B2 chain
modifications: linker attached as sialic acid derivative to an N-linked glycan (ST3Gal-III); gamma-carboxylated Glu in the Gla domain; unpaired hinge Cys (YGPPC) coupled by maleimide to the 10 kDa PEG linker
peak thrombin generation at 25 nM, haemophilia A like platelet rich plasma [1]: ~2 fold compared to rFVIIa (25 nM)

B4: mAb0062 (antibody, V domains shown)
VH: QVQLQQSGAEPMKPGASVKISCKATGYTFSSHWIEWIKQRPGHGLEWIGEILPGSGNTNYNEKFKGKATFTADTSSNTAYMQLSSLTSEDSAVYYCARGYYGLNYDWYFDVWGAGTTVTVSS
VL: DIQMTQTTSSLSASLGDRVTISCRASQDISNYLNWYQQKPDGTVKLLIFYTSRLHSGVPSRFSGSGSGTDYSLTISNLEPEDIATYYCQQDTKLPYTFGGGTKLEMKR
notes: Mouse VH/VL, human IgG4 / kappa; variant of mAb0052 (HC C91Y, Kabat); The entries seem to include signal peptides; also called antiTLT-1 0062mab; (0052HC.C91Y)2
binding relative to wt hTLT-1 ECD-HPC4 (hTLT-1 ECD-HPC4 R41A): < 0.2 fraction of wt
binding relative to wt hTLT-1 ECD-HPC4 (hTLT-1 ECD-HPC4 R110A): < 0.2 fraction of wt
binding relative to wt hTLT-1 ECD-HPC4 (hTLT-1 ECD-HPC4 L42A): < 0.6 fraction of wt
binding relative to wt hTLT-1 ECD-HPC4 (hTLT-1 ECD-HPC4 H116A): < 0.6 fraction of wt
binding relative to wt hTLT-1 ECD-HPC4 (hTLT-1 ECD-HPC4 M91A): < 0.4 fraction of wt
binding relative to wt hTLT-1 ECD-HPC4 (hTLT-1 ECD-HPC4 F54A): < 0.6 fraction of wt
binding relative to wt hTLT-1 ECD-HPC4 (hTLT-1 ECD-HPC4 Q43A): < 0.4 fraction of wt
Kd (hTLT-1 ECD-His): 4.12 nM
koff (hTLT-1 ECD-His): 0.00134 s⁻¹
kon (hTLT-1 ECD-His): 326000 M⁻¹ s⁻¹
